Results on nine molecules are retold here after patent US20170145104A1 (Bristol-Myers Squibb, published 2017).

Broadly, the EC50 is the concentration at which the effect is half-maximal. A high value points to weaker potency.

In assay [1] the target is T1, human GITR, membrane bound (on activated human T cells and on 3A9-hGITR cells) (human, UniProt Q9Y5U5 26-241).
T1 construct: whole, on cells; the cell is named under assay; also called huGITR; TNFRSF18
T1 sequence (looked up): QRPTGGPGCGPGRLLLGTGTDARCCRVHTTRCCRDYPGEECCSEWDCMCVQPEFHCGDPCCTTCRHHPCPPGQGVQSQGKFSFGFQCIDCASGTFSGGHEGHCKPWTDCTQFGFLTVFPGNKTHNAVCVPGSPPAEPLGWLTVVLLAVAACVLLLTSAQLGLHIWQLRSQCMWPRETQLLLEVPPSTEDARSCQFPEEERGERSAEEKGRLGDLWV
In words: FACS binding to 3A9-hGITR transfectant, Geo-MFI (PE); EC50 table beside the curves; unit from the axis; the lowest curve (small diamonds) reaches only about 40 Geo-MFI at the top concentration. A general note: Flow cytometry measures light scatter and fluorescence of single cells or particles in a stream.

Assay [2] deals with T1, human GITR, membrane bound (on …). Description: FACS binding to 3A9-hGITR transfectant, Geo-MFI (PE); EC50 table beside the curves; unit from the axis.
The target is the same in assay [3]. In words: FACS blocking assay on GITR-3A9 cells: antibody titrated first, then GITR-L, bound GITR-L read as GMFI (PE). The table prints no unit, so ug/mL is taken from the axis 'Conc (ug/mL)'.
Assay [4] concerns the target T2, cynomolgus GITR on activated cynomolgus T cells (cynomolgus, UniProt Q9Y5U5 26-241 (human entry)).
T2 construct: also called cyno GITR
T2 chain: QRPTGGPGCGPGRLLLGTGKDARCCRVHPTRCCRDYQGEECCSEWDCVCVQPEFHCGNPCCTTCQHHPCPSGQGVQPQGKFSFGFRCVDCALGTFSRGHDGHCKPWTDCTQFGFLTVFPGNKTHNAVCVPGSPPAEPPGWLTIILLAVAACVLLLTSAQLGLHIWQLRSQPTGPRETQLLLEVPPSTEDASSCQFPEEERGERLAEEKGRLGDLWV
Description: FACS on activated cynomolgus T cells, PE anti-human IgG. The EC50 table prints no unit, so nM is taken from the axis 'Concentration (nM)'. The 3C3 curve itself is flat, see non_binding. The protocol: (§1) Peripheral Blood Mononuclear Cells (PBMCs) isolated from human or cynomolgus monkey were activated with plate-coated anti-CD3 antibody (Clone: UCHT1 for human T cell activation; Clone: SP34 for cynomolgus T cell activation; both from BD Biosciences) and soluble anti-CD28 antibody (Clone:CD28.2 for both human and cynomolgus monkey, BD Biosciences) for 4 days (human)/or 5 days (cynomolgus monkey). The cells were tested for GITR mAb binding in a fluorescence-activated cell sorting (FACS)-based assay using a phycoerythrin (PE)-conjugated anti-human IgG antibody (Jackson ImmunoResearch). The samples were analyzed on a BD FACS Canto Flow Cytometer.

Assay [5] deals with T1, human GITR, membrane bound (on …). Description: FACS, activated human T cells (anti-CD3/anti-CD28), PE anti-human IgG. The protocol:
as §1

Assay [6] shares this target. Description: FACS blocking assay on GITR-3A9 cells with GITR-L, plotted as % inhibition. The table prints no unit, so ug/mL is taken from the axis 'Conc (ug/mL)'.
Assay [7] has as its target T2, cynomolgus GITR on activated cynomolgus …. In words: FACS, activated cynomolgus T cells (anti-CD3/anti-CD28), PE anti-human IgG. As to the method:
as §1

The next assay deals with T3, mouse GITR (mouse, UniProt O35714 20-228).
T3 construct: whole, on cells; also called muGITR
T3 sequence (looked up): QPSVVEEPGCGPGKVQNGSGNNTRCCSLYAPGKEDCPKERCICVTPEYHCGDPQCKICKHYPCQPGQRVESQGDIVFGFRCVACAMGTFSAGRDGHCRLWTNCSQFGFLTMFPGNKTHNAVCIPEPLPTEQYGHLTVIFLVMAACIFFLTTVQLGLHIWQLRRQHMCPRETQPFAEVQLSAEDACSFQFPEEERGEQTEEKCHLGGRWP
Description: stated in the Treg suppression assay with wildtype and huGITR knock-in mouse T cells.

Assay [8] deals with T4, non-glycosylated N-terminal human GITR peptide consisting of SEQ ID NO: 215 (human).
T4 construct: Made by proteolysis of native GITR-mouse Fc and also by organic synthesis; also called N-terminal peptide without O-linked glycosylation
T4 peptide: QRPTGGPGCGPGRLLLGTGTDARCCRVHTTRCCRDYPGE
In words: capture on 28F3 coated beads, LC-MS. The protocol:
The experiment was conducted as follows: Human GITR peptide fragments were generated by incubation of human GITR with Endoproteinase Arg-C, Endoproteinase Lys-C, Trypsin, Endoproteinase Glu-C or Endoproteinase Asp-N at a 2% w/w ratio at 37° C. in PBS for five hours without the presence of denaturing reagents. The peptide mixture was then incubated with anti-GITR Ab beads in PBS at room temperature for two hours. Some samples were subjected to in situ secondary cleavage by incubation with a different enzyme in PBS for an hour. Unbound peptides were removed by washing the anti-GITR Ab beads twice with PBS.

B1: 28F3 VH CDR3 mutant M98S, D106E, M111F (antibody, V domains shown)
VH: QVQLVESGGGVVQPGRSLRLSCAASGFTFSSYGMHWVRQAPGKGLEWVAVIWYEGSNKYYADSVKGRFTISRDNSKNTLYLQMNSLRAEDTAVYYCARGGSSVRGEYYYGFDVWGQGTTVTVSS
VL: AIQLTQSPSSLSASVGDRVTITCRASQGISSALAWYQQKPGKAPKLLIYDASSLESGVPSRFSGSGSGTDFTLTISSLQPEDFATYYCQQFNSYPYTFGQGTKLEIK
notes: also called E4
The molecule B1 displayed an EC50 in assay [1] of roughly 38600 µM.

B2: 28F3 VH CDR3 mutant M98Y, D106E (antibody, V domains shown)
VH: QVQLVESGGGVVQPGRSLRLSCAASGFTFSSYGMHWVRQAPGKGLEWVAVIWYEGSNKYYADSVKGRFTISRDNSKNTLYLQMNSLRAEDTAVYYCARGGSYVRGEYYYGMDVWGQGTTVTVSS
VL: AIQLTQSPSSLSASVGDRVTITCRASQGISSALAWYQQKPGKAPKLLIYDASSLESGVPSRFSGSGSGTDFTLTISSLQPEDFATYYCQQFNSYPYTFGQGTKLEIK
notes: also called G5
The molecule B2 registered a concentration for a half-maximal effect (EC50) in assay [2] of 0.000798 µM.

B3: 28F3 VH CDR3 mutant M98Y (antibody, V domains shown)
VH: QVQLVESGGGVVQPGRSLRLSCAASGFTFSSYGMHWVRQAPGKGLEWVAVIWYEGSNKYYADSVKGRFTISRDNSKNTLYLQMNSLRAEDTAVYYCARGGSYVRGDYYYGMDVWGQGTTVTVSS
VL: AIQLTQSPSSLSASVGDRVTITCRASQGISSALAWYQQKPGKAPKLLIYDASSLESGVPSRFSGSGSGTDFTLTISSLQPEDFATYYCQQFNSYPYTFGQGTKLEIK
notes: also called G6
Molecule B3 displayed an EC50 in assay [2] of 0.00168 µM.

B4: 28F3 VH CDR3 mutant M98Y, D106E, M111F (antibody, V domains shown)
VH: QVQLVESGGGVVQPGRSLRLSCAASGFTFSSYGMHWVRQAPGKGLEWVAVIWYEGSNKYYADSVKGRFTISRDNSKNTLYLQMNSLRAEDTAVYYCARGGSYVRGEYYYGFDVWGQGTTVTVSS
VL: AIQLTQSPSSLSASVGDRVTITCRASQGISSALAWYQQKPGKAPKLLIYDASSLESGVPSRFSGSGSGTDFTLTISSLQPEDFATYYCQQFNSYPYTFGQGTKLEIK
notes: also called G4
For the molecule B4, it took 0.045 µM to reach a half-maximal effect in [2] (EC50).

B5: 28F3 VH CDR3 mutant M98V, D106E, M111F (antibody, V domains shown)
VH: QVQLVESGGGVVQPGRSLRLSCAASGFTFSSYGMHWVRQAPGKGLEWVAVIWYEGSNKYYADSVKGRFTISRDNSKNTLYLQMNSLRAEDTAVYYCARGGSVVRGEYYYGFDVWGQGTTVTVSS
VL: AIQLTQSPSSLSASVGDRVTITCRASQGISSALAWYQQKPGKAPKLLIYDASSLESGVPSRFSGSGSGTDFTLTISSLQPEDFATYYCQQFNSYPYTFGQGTKLEIK
notes: also called A4
As for B5, in assay [2], the EC50 was 0.000772 µM.

B6: 3C3 (antibody, human IgG1, kappa, V domains shown)
VH: QVQLQQWGAGLLKPSETLSLTCAVYGGSFSGYYWTWIRQPPGKGLEWIGKINHSGNTNYNPSLKSRVTISVDTSKNQFSLKLSSVTAADTAVYYCARLGAFDAFDIWGQGTMVTVSS
VL: DIQMTQSPSSLSASVGDRVTITCRASQGISSWLAWYQQKPEKAPKSLIYAASSLQSGVPSRFSGSGSGTDFTLTISSLQPEDFATYYCQQYNSYPYTFGQGTKLEIKR
notes: Hybridoma-derived human antibody; also called GITR.3; 3C3-1
B6: the half-maximal effective concentration (EC50) is 0.0693 µg/mL in assay [3], 0.142 µM in assay [4], 49.2 pM in assay [5] and 0.0693 µg/mL in assay [6].

B7: 19D3 (antibody, human IgG2, kappa, V domains shown)
VH: QVQLVESGGGVVQPGRSLRLSCAASGFTFSSYGFHWVRQAPGKGLEWVAVIWYAGSNKFYADSVKGRFTISRDNSKNTLYLQMNSLRAEDTAVYYCARGGQLDYYYYYVMDVWGQGTTVTVSS
VL: DIQMTQSPSSLSASVGDRVTITCRASQGISSWLAWYQQKPEKAPKSLIYAASSLQSGVPSRFSGSGSGTDFTLTISSLQPEDFATYYCQQYNSYPYTFGQGTKLEIKR
notes: Hybridoma-derived human antibody; also called 19D3-IgG2
In the case of B7, the EC50 was found to be 0.755 µg/mL in assay [3], 363 pM in assay [5] and 0.755 µg/mL in assay [6].

B8: 18E10 (antibody, human IgG2, kappa, V domains shown)
VH: QVQLVESGGGVVQPGRSLRLSCAASGFTFSSYGMHWVRQAPGKGLEWVAVIWYAGSNKYYADSVKGRFTISRDNSKNTLYLQMNSLRAEDTAVYYCARGGRIAVAFYYSMDVWGQGTTVTVSS
VL: DIQMTQSPSSLSASVGDRVTITCRASQGISSWLAWYQQKPEKAPKSLIYAASSLQSGVPSRFSGSGSGTDFTLTISSLQPEDFATYYCQQYNSYPYTFGQGTKLEIKR
notes: Hybridoma-derived human antibody; also called 18E10-IgG2
Regarding B8, the figures for the concentration for a half-maximal effect (EC50) in [7] and in assay [5] were 0.000913 µM and 146 pM, respectively.

B9: 28F3 (antibody, human IgG2, kappa)
heavy: QVQLVESGGGVVQPGRSLRLSCAASGFTFSSYGMHWVRQAPGKGLEWVAVIWYEGSNKYYADSVKGRFTISRDNSKNTLYLQMNSLRAEDTAVYYCARGGSMVRGDYYYGMDVWGQGTTVTVSSASTKGPSVFPLAPCSRSTSESTAALGCLVKDYFPEPVTVSWNSGALTSGVHTFPAVLQSSGLYSLSSVVTVPSSNFGTQTYTCNVDHKPSNTKVDKTVERKCCVECPPCPAPPVAGPSVFLFPPKPKDTLMISRTPEVTCVVVDVSHEDPEVQFNWYVDGVEVHNAKTKPREEQFNSTFRVVSVLTVVHQDWLNGKEYKCKVSNKGLPAPIEKTISKTKGQPREPQVYTLPPSREEMTKNQVSLTCLVKGFYPSDIAVEWESNGQPENNYKTTPPMLDSDGSFFLYSKLTVDKSRWQQGNVFSCSVMHEALHNHYTQKSLSLSPGK
light: not shown
notes: Hybridoma-derived human antibody, IgG2 constant region; also called 13H2; 28F3 (IgG2)
Take B9: the half-maximal effective concentration (EC50) in assay [3] is 0.278 µg/mL; in assay [7] it was 0.00104 µM; in assay [5] it was 192 pM; in assay [6], 0.278 µg/mL. The binding result with mouse GITR is on record as “no binding”; in assay [8], “binds”.
